From paper PMC12501149 come the findings set out here.

This experiment has as its target biotinylated RBD of TcsL (Paeniclostridium sordellii) (UniProt Q46342). The experiment in a line: SPR.

biotinylated RBD of TcsL (Paeniclostridium sordellii), sequence (Q46342 whole entry): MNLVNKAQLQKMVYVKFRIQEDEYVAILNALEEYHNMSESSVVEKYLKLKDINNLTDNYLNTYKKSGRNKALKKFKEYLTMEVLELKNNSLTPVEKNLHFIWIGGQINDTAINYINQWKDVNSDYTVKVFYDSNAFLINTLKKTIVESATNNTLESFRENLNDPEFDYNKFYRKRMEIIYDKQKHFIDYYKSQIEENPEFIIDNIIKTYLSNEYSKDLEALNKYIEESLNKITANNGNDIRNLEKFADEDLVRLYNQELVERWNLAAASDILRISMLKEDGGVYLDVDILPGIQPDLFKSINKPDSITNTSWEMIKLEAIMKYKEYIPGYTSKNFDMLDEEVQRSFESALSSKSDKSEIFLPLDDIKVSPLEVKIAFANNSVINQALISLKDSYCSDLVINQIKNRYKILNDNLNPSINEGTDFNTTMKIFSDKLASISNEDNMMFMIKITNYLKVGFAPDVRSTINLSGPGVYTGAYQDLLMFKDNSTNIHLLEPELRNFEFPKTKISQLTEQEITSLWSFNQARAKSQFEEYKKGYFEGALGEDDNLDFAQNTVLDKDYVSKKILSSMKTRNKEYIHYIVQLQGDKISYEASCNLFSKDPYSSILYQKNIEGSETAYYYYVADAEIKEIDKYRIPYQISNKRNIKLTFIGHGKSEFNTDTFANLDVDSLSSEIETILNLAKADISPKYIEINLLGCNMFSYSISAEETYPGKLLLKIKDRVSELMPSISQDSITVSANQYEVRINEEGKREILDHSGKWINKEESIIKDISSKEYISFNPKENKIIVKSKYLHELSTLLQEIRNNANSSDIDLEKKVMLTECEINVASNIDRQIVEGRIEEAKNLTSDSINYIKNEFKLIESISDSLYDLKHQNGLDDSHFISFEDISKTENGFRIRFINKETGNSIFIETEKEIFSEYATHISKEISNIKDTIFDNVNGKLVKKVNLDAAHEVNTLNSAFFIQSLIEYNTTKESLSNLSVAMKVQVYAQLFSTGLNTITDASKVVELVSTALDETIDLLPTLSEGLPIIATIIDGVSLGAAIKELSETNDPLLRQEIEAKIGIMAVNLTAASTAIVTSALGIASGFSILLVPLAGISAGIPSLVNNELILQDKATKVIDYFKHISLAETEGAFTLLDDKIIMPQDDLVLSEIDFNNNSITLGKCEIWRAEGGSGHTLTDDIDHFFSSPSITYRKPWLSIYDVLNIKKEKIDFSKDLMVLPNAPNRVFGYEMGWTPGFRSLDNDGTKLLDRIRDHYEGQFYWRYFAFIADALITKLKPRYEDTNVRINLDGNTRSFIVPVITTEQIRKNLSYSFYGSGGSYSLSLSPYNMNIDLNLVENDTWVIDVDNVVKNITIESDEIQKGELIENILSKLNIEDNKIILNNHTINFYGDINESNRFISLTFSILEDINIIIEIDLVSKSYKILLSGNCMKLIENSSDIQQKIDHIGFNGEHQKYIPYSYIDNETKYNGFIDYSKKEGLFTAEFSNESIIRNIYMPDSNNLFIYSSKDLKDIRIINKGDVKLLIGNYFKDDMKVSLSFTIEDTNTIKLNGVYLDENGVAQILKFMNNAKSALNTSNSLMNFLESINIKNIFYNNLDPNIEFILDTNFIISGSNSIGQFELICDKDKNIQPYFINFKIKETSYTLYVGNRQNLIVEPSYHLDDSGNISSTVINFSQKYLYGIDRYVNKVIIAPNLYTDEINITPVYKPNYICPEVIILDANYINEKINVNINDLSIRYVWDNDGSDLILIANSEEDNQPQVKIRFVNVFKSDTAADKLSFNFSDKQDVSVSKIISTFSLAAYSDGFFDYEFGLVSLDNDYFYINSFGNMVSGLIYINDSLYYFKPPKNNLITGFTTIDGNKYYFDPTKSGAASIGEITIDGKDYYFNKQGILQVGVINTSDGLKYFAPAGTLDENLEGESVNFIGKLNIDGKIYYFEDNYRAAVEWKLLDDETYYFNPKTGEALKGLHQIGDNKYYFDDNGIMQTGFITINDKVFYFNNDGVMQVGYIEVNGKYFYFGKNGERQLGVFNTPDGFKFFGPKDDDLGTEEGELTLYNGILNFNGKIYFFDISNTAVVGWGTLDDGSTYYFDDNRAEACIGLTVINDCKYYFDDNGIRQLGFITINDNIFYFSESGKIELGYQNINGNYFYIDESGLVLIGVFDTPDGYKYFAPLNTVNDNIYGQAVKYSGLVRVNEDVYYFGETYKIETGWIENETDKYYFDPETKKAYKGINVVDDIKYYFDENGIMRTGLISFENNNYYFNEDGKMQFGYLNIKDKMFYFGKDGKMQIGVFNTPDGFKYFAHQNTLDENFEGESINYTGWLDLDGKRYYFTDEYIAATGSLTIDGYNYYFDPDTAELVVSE

B1: B10 (designed binder)
chain: NEEIIKEIKQLLKEGKKASEIIELLKKNGYEEIAKDAELAALKSKDMRKAAAETAIKKLE
Molecule B1 showed a Kd of 0.0183 nM, a koff of 0.000125 s⁻¹ and a kon of 6.86e+06 M⁻¹ s⁻¹.
